Experimental data reported in US20120201781A1 (AbbVie / Abbott, published 2012).

T1: recombinant human IL-1α (human, UniProt P01583 113-271)
T1 sequence: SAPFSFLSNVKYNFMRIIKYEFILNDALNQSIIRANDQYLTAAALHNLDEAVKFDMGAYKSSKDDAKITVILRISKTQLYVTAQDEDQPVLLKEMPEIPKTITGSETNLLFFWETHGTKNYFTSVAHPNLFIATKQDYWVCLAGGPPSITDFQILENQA


Key:
[1] = target: T1, recombinant human IL-1α; experiment: cell-based or functional assay
[2] = target: T2, recombinant human IL-1β (human, UniProt P01584 117-269); experiment: cell-based or functional assay
[3] = target: T1, recombinant human IL-1α; experiment: SPR (Biacore)
[4] = target: T2, recombinant human IL-1β; experiment: SPR (Biacore)

Row | Potency (IC50) M, MRC-5 bioassay [1] [nM] | Potency (IC50) M, MRC-5 bioassay [2] [nM] | Kd [3] [nM] | Kd [4] [nM] | Binder
1 | 0.7 | 0.4 | 1.24 | 0.19 | hIL-1α/β DVD3b-Ig (bispecific antibody, human IgG1, kappa, 1B12.4H4 (outer) - short linker - 18F4.2C8 (inner), b-a-C orientation) heavy: not shown light: ETTVTQSPASLSMAIGEKVTIRCITSTDIDVDMNWYQQKPGEPPKLLISQGNTLRPGVPSRFSSSGSGTDFVFIIENMLSEDVADYYCLQSDNLPLTFGAGTKLELKRTVAAPDIVMTQSQRFMSTSVGDRVSVTCKASQNVGTNIAWYQQKPGQSPRALIYSASYRYSGVPDRFTGSGSGTDFTLTISNVQSVDLAEYFCQQYTRYPLTFGGGTKLEIKRTVAAPSVFIFPPSDEQLKSGTASVVCLLNNFYPREAKVQWKVDNALQSGNSQESVTEQDSKDSTYSLSSTLTLSKADYEKHKVYACEVTHQGLSSPVTKSFNRGEC
2 | 0.75 |  | 0.837 | 63.7 | hIL-1α/β DVD3a-Ig (bispecific antibody, human IgG1, kappa, 18F4.2C8 (outer) - short linker - 1B12.4H4 (inner), a-b-C orientation) heavy: not shown light: DIVMTQSQRFMSTSVGDRVSVTCKASQNVGTNIAWYQQKPGQSPRALIYSASYRYSGVPDRFTGSGSGTDFTLTISNVQSVDLAEYFCQQYTRYPLTFGGGTKLEIKRTVAAPETTVTQSPASLSMAIGEKVTIRCITSTDIDVDMNWYQQKPGEPPKLLISQGNTLRPGVPSRFSSSGSGTDFVFIIENMLSEDVADYYCLQSDNLPLTFGAGTKLELKRRTVAAPSVFIFPPSDEQLKSGTASVVCLLNNFYPREAKVQWKVDNALQSGNSQESVTEQDSKDSTYSLSSTLTLSKADYEKHKVYACEVTHQGLSSPVTKSFNRGEC
3 | 0.35 | 0.5 | 0.56 | 0.128 | hIL-1α/β DVD4b-Ig (bispecific antibody, human IgG1, kappa, 1B12.4H4 (outer) - long linker - 18F4.2C8 (inner), b-a-C orientation) heavy: not shown light: ETTVTQSPASLSMAIGEKVTIRCITSTDIDVDMNWYQQKPGEPPKLLISQGNTLRPGVPSRFSSSGSGTDFVFIIENMLSEDVADYYCLQSDNLPLTFGAGTKLELKRTVAAPSVFIFPPDIVMTQSQRFMSTSVGDRVSVTCKASQNVGTNIAWYQQKPGQSPRALIYSASYRYSGVPDRFTGSGSGTDFTLTISNVQSVDLAEYFCQQYTRYPLTFGGGTKLEIKRTVAAPSVFIFPPSDEQLKSGTASVVCLLNNFYPREAKVQWKVDNALQSGNSQESVTEQDSKDSTYSLSSTLTLSKADYEKHKVYACEVTHQGLSSPVTKSFNRGEC
4 | 0.35 | 10 | 0.701 | 0.93 | hIL-1α/β DVD4a-Ig (bispecific antibody, human IgG1, kappa, 18F4.2C8 (outer) - long linker - 1B12.4H4 (inner), a-b-C orientation) heavy: not shown light: DIVMTQSQRFMSTSVGDRVSVTCKASQNVGTNIAWYQQKPGQSPRALIYSASYRYSGVPDRFTGSGSGTDFTLTISNVQSVDLAEYFCQQYTRYPLTFGGGTKLEIKRTVAAPSVFIFPPETTVTQSPASLSMAIGEKVTIRCITSTDIDVDMNWYQQKPGEPPKLLISQGNTLRPGVPSRFSSSGSGTDFVFIIENMLSEDVADYYCLQSDNLPLTFGAGTKLELKRTVAAPSVFIFPPSDEQLKSGTASVVCLLNNFYPREAKVQWKVDNALQSGNSQESVTEQDSKDSTYSLSSTLTLSKADYEKHKVYACEVTHQGLSSPVTKSFNRGEC
5 | 2.6 | 19 | 0.508 | 12.5 | hIL-1α/β DVD5a-Ig (bispecific antibody, human IgG1, kappa, 6H3.1A4.3E11 (outer) - short linker - 6B12.4F6 (inner), a-b-C orientation) heavy: not shown light: QIVLTQSPALMSASPGEKVTMTCSASSSVNYMYWYQQKPRSSPKPWIYLTSNLASGVPARFSGSGSGTSYSLTISSMEAEDAATYYCQQWNSNPYTFGGGTKLEMKRTVAAPQIVLTQSPAIMSASPGEKVTITCSASSSVSYMHWFQQKPGASPKLWIYSTSNLASGVPARFSGSGSGTSYSLTVSRMEAEDAATYYCQQRSTYPYTFGGGTKLEIKRTVAAPSVFIFPPSDEQLKSGTASVVCLLNNFYPREAKVQWKVDNALQSGNSQESVTEQDSKDSTYSLSSTLTLSKADYEKHKVYACEVTHQGLSSPVTKSFNRGEC
